Biological target: human GPC3 on cells (human) (UniProt P51654)
Test: cell-based or functional assay

Row | HepG2 on Incucyte IC50 (M), human TDC, E:T 15:1, 60 h | Huh7 on xCELLigence IC50 (M), human TDC, E:T 15:1, 60 h | IC50 (M), xCELLigence human TDC assay on Hep-G2, E:T 15:1, 60 h | IC50 (M), xCELLigence human TDC assay on Huh-7, E:T 15:1, 60 h | IC50 (M), xCELLigence human TDC assay on NCI-H661, E:T 15:1, 75 h | IC50 (M) BxPC-3, xCELLigence human TDC assay, E:T 15:1, 60 h | IC50 (M) HepG2, xCELLigence human TDC assay, E:T 15:1, 60 h | IC50 (M) Huh-7, xCELLigence human TDC assay, E:T 15:1, 60 h | Binder | HepG2 on Incucyte Max % killing, 60 h | Huh7 on xCELLigence Max % killing, 60 h
1 | 3.67e-10 M | 1.98e-10 M | 7.3e-11 M | 2.4e-11 M | 1.4e-10 M |  |  |  | A022600168 (protein) DVQLVESGGGVVQPGGSLRLSCVASGYVHKINFYGWYRQAPGKEREKVAHISIGDQTDYADSAKGRFTISRDESKNTVYLQMNSLRPEDTAAYYCRALSRIWPYDYWGQGTLVTVSSGGGGSEVQLVESGGGLVQPGGSLRLSCVASGFTFSSFAMTWVRRPPGKGLEWVATITNGGVTSYRDSVKGRFTISRDNAKNTLYLEMTSLNPEDTAVYICANARRTGPRAPTDIGSYRGQGTLVTVSSGGGGSGGGGSGGGGSGGGGSGGGGSGGGGSGGGGSEVQLVESGGGLVQPGGSLRLSCVASGSIFRSVFSSSTMEWYRQPPGKKRELVARIAPGDGTNYGALYADSVKGRFTISRDDAKKTVDLQMNSLKPEDTGVYFCASGVAWGQGTLVTVSSGGGGSGGGGSGGGGSGGGGSGGGGSGGGGSGGGGSEVQLVESGGGVVQPGGSLRLSCAASGFTFRSFGMSWVRQAPGKGPEWVSSISGSGSDTLYADSVKGRFTISRDNSKNTLYLQMNSLRPEDTALYYCTIGGSLSRSSQGTLVTVSSA | 103% | 107%
2 | 2.92e-09 M | 6.13e-09 M |  |  |  |  |  |  | A022600179 (protein) DVQLVESGGGVVQPGGSLRLSCVASGYVHKINFYGWYRQAPGKEREKVAHISIGDQTDYADSAKGRFTISRDESKNTVYLQMNSLRPEDTAAYYCRALSRIWPYDYWGQGTLVTVSSGGGGSEVQLVESGGGLVQPGGSLRLSCVASGFTFSSFAMTWVRRPPGKGLEWVATITNGGVTSYRDSVKGRFTISRDNAKNTLYLEMTSLNPEDTAVYICANARRTGPRAPTDIGSYRGQGTLVTVSSGGGGSGGGSEVQLVESGGGVVQPGGSLRLSCAASGFTFRSFGMSWVRQAPGKGPEWVSSISGSGSDTLYADSVKGRFTISRDNSKNTLYLQMNSLRPEDTALYYCTIGGSLSRSSQGTLVTVSSA | 76% | 66%
3 | 6.73e-10 M | 6.26e-11 M |  |  |  |  |  |  | A022600174 (protein) DVQLVESGGGVVQPGGSLRLSCVASGYVHKINFYGWYRQAPGKEREKVAHISIGDQTDYADSAKGRFTISRDESKNTVYLQMNSLRPEDTAAYYCRALSRIWPYDYWGQGTLVTVSSGGGGSEVQLVESGGGLVQPGGSLRLSCVASGFTFSSFAMTWVRRPPGKGLEWVATITNGGVTSYRDSVKGRFTISRDNAKNTLYLEMTSLNPEDTAVYICANARRTGPRAPTDIGSYRGQGTLVTVSSGGGGSGGGSEVQLVESGGGLVQPGGSLRLSCVASGSIFRSVFSSSTMEWYRQPPGKKRELVARIAPGDGTNYGALYADSVKGRFTISRDDAKKTVDLQMNSLKPEDTGVYFCASGVAWGQGTLVTVSSGGGGSGGGSEVQLVESGGGVVQPGGSLRLSCAASGFTFRSFGMSWVRQAPGKGPEWVSSISGSGSDTLYADSVKGRFTISRDNSKNTLYLQMNSLRPEDTALYYCTIGGSLSRSSQGTLVTVSSA | 96% | 99%
4 |  |  |  |  |  | > 1e-07 M | 1.03e-10 M | 1.37e-10 M | A022600427 (protein) DVQLVESGGGVVQPGGSLRLSCVASGYVHKINFYGWYRQAPGKEREKVAHISIGDQTDYADSAKGRFTISRDESKNTVYLQMNSLRPEDTAAYYCRALSRIWPYDYWGQGTLVTVSSGGGGSEVQLVESGGGVVQPGGSLRLSCAASGFTFSSFAMTWVRRPPGKGLEWVATITNAGVTSYADSVKGRFTISRDNAKNTLYLQMNSLRPEDTALYICANARRTGPRAPTDIGSYRGQGTLVTVSSGGGGSGGGSEVQLVESGGGVVQPGGSLRLSCAASGSIFRSVFSSSTMEWYRQAPGKKRELVARIAPGEGTYYGALYADSVKGRFTISRDNAKNTVYLQMNSLRPEDTALYYCASGVAWGQGTLVTVSSGGGGSGGGSEVQLVESGGGVVQPGGSLRLSCAASGFTFRSFGMSWVRQAPGKGPEWVSSISGSGSDTLYADSVKGRFTISRDNSKNTLYLQMNSLRPEDTALYYCTIGGSLSRSSQGTLVTVSSA |  | 
5 | 1.92e-09 M | 8.61e-09 M | 9.2e-11 M | 4.7e-10 M | 1.8e-10 M |  |  |  | A022600167 (protein) DVQLVESGGGVVQPGGSLRLSCVASGYVHKINFYGWYRQAPGKEREKVAHISIGDQTDYADSAKGRFTISRDESKNTVYLQMNSLRPEDTAAYYCRALSRIWPYDYWGQGTLVTVSSGGGGSEVQLVESGGGLVQPGGSLRLSCVASGFTFSSFAMTWVRRPPGKGLEWVATITNGGVTSYRDSVKGRFTISRDNAKNTLYLEMTSLNPEDTAVYICANARRTGPRAPTDIGSYRGQGTLVTVSSGGGGSGGGGSGGGGSGGGGSGGGGSGGGGSGGGGSEVQLVESGGGVVQPGGSLRLSCAASGFTFRSFGMSWVRQAPGKGPEWVSSISGSGSDTLYADSVKGRFTISRDNSKNTLYLQMNSLRPEDTALYYCTIGGSLSRSSQGTLVTVSSA | 98% | 91%
6 | 3.19e-10 M | 1.86e-10 M |  |  |  |  |  |  | A022600170 (protein) DVQLVESGGGVVQPGGSLRLSCVASGYVHKINFYGWYRQAPGKEREKVAHISIGDQTDYADSAKGRFTISRDESKNTVYLQMNSLRPEDTAAYYCRALSRIWPYDYWGQGTLVTVSSGGGGSEVQLVESGGGLVQPGGSLRLSCVASGFTFSSFAMTWVRRPPGKGLEWVATITNGGVTSYRDSVKGRFTISRDNAKNTLYLEMTSLNPEDTAVYICANARRTGPRAPTDIGSYRGQGTLVTVSSGGGGSGGGGSGGGGSGGGGSGGGGSGGGGSGGGGSEVQLVESGGGLVQPGGSLRLSCVASGSIFRSVFSSSTMEWYRQPPGKKRELVARIAPGDGTNYGALYADSVKGRFTISRDDAKKTVDLQMNSLKPEDTGVYFCASGVAWGQGTLVTVSSGGGGSGGGSEVQLVESGGGVVQPGGSLRLSCAASGFTFRSFGMSWVRQAPGKGPEWVSSISGSGSDTLYADSVKGRFTISRDNSKNTLYLQMNSLRPEDTALYYCTIGGSLSRSSQGTLVTVSSA | 97% | 103%
7 | 6.41e-10 M | 1.02e-09 M |  |  |  |  |  |  | A022600169 (protein) DVQLVESGGGLVQPGGSLRLSCVASGFTFSSFAMTWVRRPPGKGLEWVATITNGGVTSYRDSVKGRFTISRDNAKNTLYLEMTSLNPEDTAVYICANARRTGPRAPTDIGSYRGQGTLVTVSSGGGGSEVQLVESGGGVVQPGGSLRLSCVASGYVHKINFYGWYRQAPGKEREKVAHISIGDQTDYADSAKGRFTISRDESKNTVYLQMNSLRPEDTAAYYCRALSRIWPYDYWGQGTLVTVSSGGGGSEVQLVESGGGLVQPGGSLRLSCVASGSIFRSVFSSSTMEWYRQPPGKKRELVARIAPGDGTNYGALYADSVKGRFTISRDDAKKTVDLQMNSLKPEDTGVYFCASGVAWGQGTLVTVSSGGGGSGGGGSGGGGSGGGGSGGGGSGGGGSGGGGSEVQLVESGGGVVQPGGSLRLSCAASGFTFRSFGMSWVRQAPGKGPEWVSSISGSGSDTLYADSVKGRFTISRDNSKNTLYLQMNSLRPEDTALYYCTIGGSLSRSSQGTLVTVSSA | 81% | 61%
8 | 6.01e-10 M | 6.7e-11 M |  |  |  |  |  |  | A022600172 (protein) DVQLVESGGGVVQPGGSLRLSCVASGYVHKINFYGWYRQAPGKEREKVAHISIGDQTDYADSAKGRFTISRDESKNTVYLQMNSLRPEDTAAYYCRALSRIWPYDYWGQGTLVTVSSGGGGSEVQLVESGGGLVQPGGSLRLSCVASGFTFSSFAMTWVRRPPGKGLEWVATITNGGVTSYRDSVKGRFTISRDNAKNTLYLEMTSLNPEDTAVYICANARRTGPRAPTDIGSYRGQGTLVTVSSGGGGSGGGSEVQLVESGGGVVQPGGSLRLSCAASGFTFRSFGMSWVRQAPGKGPEWVSSISGSGSDTLYADSVKGRFTISRDNSKNTLYLQMNSLRPEDTALYYCTIGGSLSRSSQGTLVTVSSGGGGSGGGSEVQLVESGGGLVQPGGSLRLSCVASGSIFRSVFSSSTMEWYRQPPGKKRELVARIAPGDGTNYGALYADSVKGRFTISRDDAKKTVDLQMNSLKPEDTGVYFCASGVAWGQGTLVTVSSA | 81% | 90%
9 | 5.27e-10 M | 5.86e-11 M |  |  |  |  |  |  | A022600175 (protein) DVQLVESGGGVVQPGGSLRLSCVASGYVHKINFYGWYRQAPGKEREKVAHISIGDQTDYADSAKGRFTISRDESKNTVYLQMNSLRPEDTAAYYCRALSRIWPYDYWGQGTLVTVSSGGGGSEVQLVESGGGLVQPGGSLRLSCVASGFTFSSFAMTWVRRPPGKGLEWVATITNGGVTSYRDSVKGRFTISRDNAKNTLYLEMTSLNPEDTAVYICANARRTGPRAPTDIGSYRGQGTLVTVSSGGGGSGGGSEVQLVESGGGLVQPGGSLRLSCVASGSIFRSVFSSSTMEWYRQPPGKKRELVARIAPGDGTNYGALYADSVKGRFTISRDDAKKTVDLQMNSLKPEDTGVYFCASGVAWGQGTLVTVSSGGGGSGGGGSGGGGSGGGGSGGGGSGGGGSGGGGSEVQLVESGGGVVQPGGSLRLSCAASGFTFRSFGMSWVRQAPGKGPEWVSSISGSGSDTLYADSVKGRFTISRDNSKNTLYLQMNSLRPEDTALYYCTIGGSLSRSSQGTLVTVSSA | 96% | 99%

Same assay, conditions: not given

Row | IC50 (M) NCI-H23, xCELLigence human TDC assay, E:T 15:1, 60 h | IC50 (M) NCI-H661, xCELLigence human TDC assay, E:T 15:1, 60 h | IC50 (M), Incucyte human TDC HepG2-Nuclight green assay, E:T 15:1 (Step 2) | Binder | Max % Killing, Incucyte human TDC HepG2-Nuclight green assay (Step 2)
10 | > 1e-07 M | 1e-10 M |  | A022600427 (protein) DVQLVESGGGVVQPGGSLRLSCVASGYVHKINFYGWYRQAPGKEREKVAHISIGDQTDYADSAKGRFTISRDESKNTVYLQMNSLRPEDTAAYYCRALSRIWPYDYWGQGTLVTVSSGGGGSEVQLVESGGGVVQPGGSLRLSCAASGFTFSSFAMTWVRRPPGKGLEWVATITNAGVTSYADSVKGRFTISRDNAKNTLYLQMNSLRPEDTALYICANARRTGPRAPTDIGSYRGQGTLVTVSSGGGGSGGGSEVQLVESGGGVVQPGGSLRLSCAASGSIFRSVFSSSTMEWYRQAPGKKRELVARIAPGEGTYYGALYADSVKGRFTISRDNAKNTVYLQMNSLRPEDTALYYCASGVAWGQGTLVTVSSGGGGSGGGSEVQLVESGGGVVQPGGSLRLSCAASGFTFRSFGMSWVRQAPGKGPEWVSSISGSGSDTLYADSVKGRFTISRDNSKNTLYLQMNSLRPEDTALYYCTIGGSLSRSSQGTLVTVSSA | 
11 |  |  | 6.11e-10 M | A022600135 (protein) DVQLVESGGGVVQPGGSLRLSCVASGYVHKINFYGWYRQAPGKEREKVAHISIGDQTDYADSAKGRFTISRDESKNTVYLQMNSLRPEDTALYYCRALSRIWPYDYWGQGTLVTVSSGGGGSEVQLVESGGGLVQPGGSLRLSCVASGSIFRSVFSSSTMEWYRQPPGKKRELVARIAPGDGTNYGALYADSVKGRFTISRDDAKKTVDLQMNSLKPEDTGVYFCASGVAWGQGTLVTVSSGGGGSGGGSEVQLVESGGGLVQPGGSLRLSCVASGFTFSSFAMTWVRRPPGKGLEWVATITNGGVTSYRDSVKGRFTISRDNAKNTLYLEMTSLNPEDTAVYICANARRTGPRAPTDIGSYRGQGTLVTVSSGGGGSGGGGSGGGGSGGGGSGGGGSGGGGSGGGGSEVQLVESGGGVVQPGGSLRLSCAASGFTFRSFGMSWVRQAPGKGPEWVSSISGSGSDTLYADSVKGRFTISRDNSKNTLYLQMNSLRPEDTALYYCTIGGSLSRSSQGTLVTVSSA | 91%
